This note sets out measurements from the supplement of paper PMC9112550, “Optimization of the antimicrobial peptide Bac7 by deep mutational scanning” (BMC Biology, 2022).

This data set concerns Escherichia coli TOP10. Briefly: shrunken log2 fold change of peptide-encoding DNA abundance (4.5 h post-induction vs induction); higher = less antimicrobial activity (less host growth inhibition). The note with it: time post-induction: 4.5 h; library: site-saturation at positions 5, 18, 19, 20.
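Further: peptides expressed intracellularly from a pBAD plasmid library in pooled LB shake-flask culture, induced with 0.3% L-arabinose, DNA abundance read by NGS, three biological replicates, DESeq2 with apeglm shrinkage.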

With RRIRCRPPRLPRPRPRPILLPRP, the “shrunken log2 fold change” value was -1.03.
As for RRIRGRPPRLPRPRPRPYRGPRP, the “shrunken log2 fold change” value is -0.186.
The same measure for RRIRIRPPRLPRPRPRPTWRPRP: 0.274.
Under RRIRHRPPRLPRPRPRPFHLPRP stands -0.438; under RRIRERPPRLPRPRPRPQFRPRP, -0.00151.
RRIRGRPPRLPRPRPRPCACPRP: the “shrunken log2 fold change” value turned out to be 0.225.
RRIRGRPPRLPRPRPRPIGTPRP: the “shrunken log2 fold change” value was found to be 0.334.
With RRIRTRPPRLPRPRPRPGYMPRP, the “shrunken log2 fold change” value was -0.297.
Under RRIRDRPPRLPRPRPRPQNHPRP stands -0.34; under RRIRLRPPRLPRPRPRPNINPRP, -0.686; under RRIRQRPPRLPRPRPRPHNDPRP, -0.421.
Under RRIRHRPPRLPRPRPRPMNFPRP stands -0.0483; under RRIRKRPPRLPRPRPRPPQDPRP, 0.636; under RRIRRRPPRLPRPRPRPEFFPRP, 0.216.
For RRIRPRPPRLPRPRPRPETYPRP, the “shrunken log2 fold change” value was -0.0102.
As for RRIRQRPPRLPRPRPRPCFAPRP, the “shrunken log2 fold change” value amounted to 0.0874.
RRIRVRPPRLPRPRPRPHHKPRP: the “shrunken log2 fold change” value is -0.477.
Under RRIRVRPPRLPRPRPRPVRVPRP stands 0.905.
The same measure for RRIRARPPRLPRPRPRPMRWPRP: 0.618; for RRIRARPPRLPRPRPRPHEPPRP: 0.00298; for RRIRHRPPRLPRPRPRPGINPRP: -0.422.
Under RRIRQRPPRLPRPRPRPLDEPRP stands 0.0698.
For RRIRPRPPRLPRPRPRPSCLPRP, the “shrunken log2 fold change” value is -0.317.
The same measure for RRIRPRPPRLPRPRPRPYWPPRP: -0.143; for RRIRRRPPRLPRPRPRPYLHPRP: -0.307; for RRIRLRPPRLPRPRPRPSWEPRP: 0.0244.
The same measure for RRIRPRPPRLPRPRPRPYKNPRP: -0.775; for RRIRHRPPRLPRPRPRPFAGPRP: -0.205.
As to RRIRIRPPRLPRPRPRPDMTPRP, the “shrunken log2 fold change” value was -0.01.
The same measure for RRIRERPPRLPRPRPRPSGEPRP: -0.157.
RRIRIRPPRLPRPRPRPWMGPRP: the “shrunken log2 fold change” value was -0.185.
The same measure for RRIRRRPPRLPRPRPRPRCQPRP: 0.385; for RRIRWRPPRLPRPRPRPRPWPRP: 0.289.
Under RRIRMRPPRLPRPRPRPENLPRP stands -0.00111; under RRIRERPPRLPRPRPRPHMGPRP, -0.00822; under RRIRVRPPRLPRPRPRPCTQPRP, -0.322.
The same measure for RRIRSRPPRLPRPRPRPTGYPRP: 0.0189; for RRIRIRPPRLPRPRPRPDISPRP: -0.0405.
Take RRIRLRPPRLPRPRPRPCWGPRP: the “shrunken log2 fold change” value was found to be 0.00437.
Under RRIRGRPPRLPRPRPRPIKGPRP stands -0.0627; under RRIRPRPPRLPRPRPRPELSPRP, 0.46.
Under RRIRARPPRLPRPRPRPLSSPRP stands 0.2; under RRIRVRPPRLPRPRPRPDTSPRP, -0.124; under RRIRQRPPRLPRPRPRPWHFPRP, -0.0375.
Under RRIRPRPPRLPRPRPRPIDQPRP stands -0.116.
Turning to RRIRTRPPRLPRPRPRPAAPPRP, the “shrunken log2 fold change” value turned out to be 0.275.
The same measure for RRIRGRPPRLPRPRPRPMNAPRP: 0.493.
The same measure for RRIRCRPPRLPRPRPRPRDTPRP: 0.0379; for RRIRMRPPRLPRPRPRPQPRPRP: 1.22.
The same measure for RRIRRRPPRLPRPRPRPSSSPRP: 0.133; for RRIRKRPPRLPRPRPRPVQFPRP: -0.0421.
As for RRIRWRPPRLPRPRPRPKGTPRP, the “shrunken log2 fold change” value was -0.0654.
The same measure for RRIRPRPPRLPRPRPRPGQNPRP: 0.0194; for RRIRGRPPRLPRPRPRPPDSPRP: 0.952.
The same measure for RRIRWRPPRLPRPRPRPKYLPRP: -0.1; for RRIRTRPPRLPRPRPRPTTFPRP: -0.012; for RRIRDRPPRLPRPRPRPADGPRP: -0.00193.
Under RRIRMRPPRLPRPRPRPVQDPRP stands 0.32.
Take RRIRHRPPRLPRPRPRPAMMPRP: the “shrunken log2 fold change” value is -0.114.
The same measure for RRIRQRPPRLPRPRPRPKLGPRP: 0.00556; for RRIRFRPPRLPRPRPRPDRMPRP: -0.00758; for RRIRKRPPRLPRPRPRPDRAPRP: 0.115.
The same measure for RRIRGRPPRLPRPRPRPHWYPRP: -0.0365; for RRIRRRPPRLPRPRPRPGPHPRP: 0.437.
The same measure for RRIRTRPPRLPRPRPRPACKPRP: 0.172.
Consider RRIRERPPRLPRPRPRPTMKPRP, for which the “shrunken log2 fold change” value is -0.0369.
On to RRIRHRPPRLPRPRPRPLKLPRP, for which the “shrunken log2 fold change” value turned out to be 0.0187.
Under RRIRLRPPRLPRPRPRPGVLPRP stands 0.204; under RRIRNRPPRLPRPRPRPVTTPRP, 0.171.
Under RRIRMRPPRLPRPRPRPRSIPRP stands 0.667; under RRIRCRPPRLPRPRPRPNNSPRP, -0.743.
Under RRIRDRPPRLPRPRPRPLEIPRP stands 0.287; under RRIRERPPRLPRPRPRPLGLPRP, -0.00554; under RRIRYRPPRLPRPRPRPKYQPRP, -0.213.
In the case of RRIRQRPPRLPRPRPRPAMNPRP, the “shrunken log2 fold change” value is -0.115.
The same measure for RRIRERPPRLPRPRPRPEWTPRP: 0.0896.
RRIRQRPPRLPRPRPRPFFKPRP: the “shrunken log2 fold change” value was -0.132.
Consider RRIRGRPPRLPRPRPRPHKRPRP, for which the “shrunken log2 fold change” value amounted to 0.34.
The same measure for RRIRCRPPRLPRPRPRPNGMPRP: -0.398; for RRIRFRPPRLPRPRPRPCLVPRP: -0.208; for RRIRGRPPRLPRPRPRPQFWPRP: 0.553.
Regarding RRIRHRPPRLPRPRPRPNHLPRP, the “shrunken log2 fold change” value is -0.0856.
RRIRYRPPRLPRPRPRPQFVPRP: the “shrunken log2 fold change” value was 0.119.
Under RRIRARPPRLPRPRPRPERYPRP stands 0.0113.
Under RRIRSRPPRLPRPRPRPQLDPRP stands -0.191; under RRIRFRPPRLPRPRPRPQPQPRP, 0.301; under RRIRHRPPRLPRPRPRPPNLPRP, 0.189.
Under RRIRNRPPRLPRPRPRPQQYPRP stands 0.017.
Regarding RRIRIRPPRLPRPRPRPPYSPRP, the “shrunken log2 fold change” value worked out at 0.0677.
Take RRIRIRPPRLPRPRPRPPNPPRP: the “shrunken log2 fold change” value was 0.765.
The same measure for RRIRARPPRLPRPRPRPQWRPRP: 0.218; for RRIRARPPRLPRPRPRPGGQPRP: 0.262; for RRIRQRPPRLPRPRPRPLHLPRP: -0.617.
Under RRIRSRPPRLPRPRPRPNQFPRP stands -0.232.
Consider RRIRVRPPRLPRPRPRPKQKPRP, for which the “shrunken log2 fold change” value is -0.0521.
Under RRIRNRPPRLPRPRPRPDMNPRP stands -0.0522.
Under RRIRQRPPRLPRPRPRPECAPRP stands 0.407.
The same measure for RRIRTRPPRLPRPRPRPPEPPRP: 0.416.
Take RRIRPRPPRLPRPRPRPHPTPRP: the “shrunken log2 fold change” value was 0.17.
Under RRIRDRPPRLPRPRPRPCPFPRP stands -0.0587; under RRIRRRPPRLPRPRPRPARGPRP, 0.731.
With RRIRYRPPRLPRPRPRPHYWPRP, the “shrunken log2 fold change” value was -0.582.
Under RRIRNRPPRLPRPRPRPACEPRP stands 0.172; under RRIRSRPPRLPRPRPRPMINPRP, -0.23.
Turning to RRIRQRPPRLPRPRPRPEYMPRP, the “shrunken log2 fold change” value is -0.0613.
RRIRCRPPRLPRPRPRPKQHPRP: the “shrunken log2 fold change” value came out at 0.189.
For RRIRIRPPRLPRPRPRPENHPRP, the “shrunken log2 fold change” value is -0.143.
As to RRIRRRPPRLPRPRPRPMMHPRP, the “shrunken log2 fold change” value was found to be 0.101.
Consider RRIRYRPPRLPRPRPRPMQNPRP, for which the “shrunken log2 fold change” value was -0.488.
Under RRIRERPPRLPRPRPRPLQEPRP stands -0.154; under RRIRVRPPRLPRPRPRPRFTPRP, -0.0651; under RRIRNRPPRLPRPRPRPVWQPRP, 0.285.
For the sequence RRIRCRPPRLPRPRPRPCWKPRP, the “shrunken log2 fold change” value was -0.174.
Under RRIRPRPPRLPRPRPRPHTGPRP stands -0.0698; under RRIRARPPRLPRPRPRPGIEPRP, 0.108.
Under RRIRKRPPRLPRPRPRPQYGPRP stands -0.0781.
Under RRIRNRPPRLPRPRPRPIYHPRP stands -0.526.
RRIRHRPPRLPRPRPRPRHFPRP: the “shrunken log2 fold change” value was -0.0239.
The same measure for RRIRVRPPRLPRPRPRPCIPPRP: -0.467; for RRIRARPPRLPRPRPRPVLSPRP: 0.26.
The same measure for RRIRWRPPRLPRPRPRPLRLPRP: 0.804.
Under RRIRMRPPRLPRPRPRPDLSPRP stands 1.58.
For the sequence RRIRIRPPRLPRPRPRPCPNPRP, the “shrunken log2 fold change” value is -0.159.
The same measure for RRIRKRPPRLPRPRPRPDNKPRP: -0.119; for RRIRKRPPRLPRPRPRPHCWPRP: 0.17.
